# Molecular target: FGFR3 (UniProt P22607)
# Experiment: phosphorylation enrichment, bacterial display (enrichment ratio); higher = better substrate or ligand; peptides without Tyr show the background
# 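Note: 11-residue human phosphosite peptides and single-mutation variants displayed on the E. coli surface, counted by deep sequencing, each peptide's frequency after selection divided by its frequency in the unselected input library; frequency after pTyr selection over input frequency; kinase dosed for 20-30% of maximal phosphorylation in three min.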
# Chain of FGFR3 (P22607 whole entry, looked up): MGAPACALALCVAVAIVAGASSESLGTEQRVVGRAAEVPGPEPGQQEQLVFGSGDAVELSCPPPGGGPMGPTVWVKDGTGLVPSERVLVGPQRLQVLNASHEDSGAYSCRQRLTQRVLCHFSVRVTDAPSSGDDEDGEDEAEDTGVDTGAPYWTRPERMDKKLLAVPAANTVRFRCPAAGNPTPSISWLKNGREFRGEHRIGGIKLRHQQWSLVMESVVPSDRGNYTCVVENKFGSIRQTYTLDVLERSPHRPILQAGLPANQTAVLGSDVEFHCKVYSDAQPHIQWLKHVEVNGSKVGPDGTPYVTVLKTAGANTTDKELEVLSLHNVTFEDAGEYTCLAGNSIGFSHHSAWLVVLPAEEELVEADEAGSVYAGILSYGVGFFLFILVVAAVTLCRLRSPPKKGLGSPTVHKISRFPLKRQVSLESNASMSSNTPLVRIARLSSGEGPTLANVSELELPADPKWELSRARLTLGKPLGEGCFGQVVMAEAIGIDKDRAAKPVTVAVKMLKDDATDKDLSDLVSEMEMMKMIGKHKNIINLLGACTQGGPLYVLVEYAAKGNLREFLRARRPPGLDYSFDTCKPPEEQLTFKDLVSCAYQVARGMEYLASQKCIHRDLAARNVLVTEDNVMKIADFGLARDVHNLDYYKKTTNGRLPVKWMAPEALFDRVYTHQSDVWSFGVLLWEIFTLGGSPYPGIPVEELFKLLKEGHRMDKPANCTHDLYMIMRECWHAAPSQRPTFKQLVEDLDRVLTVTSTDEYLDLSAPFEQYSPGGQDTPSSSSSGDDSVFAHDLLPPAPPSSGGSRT
row,Sequence,phosphorylation enrichment
1,WGLRSYFETSK [MAGED2_Y448_YF],0.645
2,FLAATYPTLGQ [NF1_Y2508_V2511L_YF],0.572
3,DLQDENDFKCK [STAT1_Y170_Y170N],0.853
4,PASLSYLSFEG [EXOSC3_Y143],0.742
5,KHASTYREAAT [DEAF1_Y483],0.39
6,GMKIVYVYVKK [DNAI2_Y5_E2K],0.587
7,QQLDEYQKLLD [LMNA_Y359_E361K],1.2
8,LLKAGYQGVLR [TTPA_Y100_H101Q],0.565
9,EIRTQYEAMAS [GFAP_Y242],0.523
10,PVQDAYQKVVA [HBB_Y131_A129D],0.429
11,DPYHVYIKNRV [KCNE3_Y95],0.628
12,GKVFIYHGSSL [ITGA7_Y458],0.761
13,TESALYGCTVV [KIAA1804_Y724_L729V],0.802
14,EFGEVYKGTLK [EPHA2_Y628_M631T],0.426
15,KWELRYMHSRV [ABCD1_Y281_G277W],0.685
16,TQTPPYVKKHP [LARP1B_Y457],0.521
17,SVESPYGSVTF [NDRG2_Y47_T45S],0.496

row,Sequence,phosphorylation enrichment
1,QRPFVYFFSFL [PTEN_Y176_R173P_YF],1.39
2,TVLEPYADPFF [ZC3H18_Y367_YF],0.611
3,SVVVRYEPPEV [TP53_Y220_P219R],0.517
4,GIVTGYLVLKE [DNMT3B_Y588_A585V],0.895
5,ADLTEYLSTHF [UQCRC1_Y219_YF],0.923
6,VPVPGYTKVPE [SPRR3_Y146_L149V],0.789
7,QMVGMYAFSFM [AVPR2_Y124_S126F_YF],1.63
8,ATHSGYRLNDF [CLDN14_Y233_YF],0.538
9,FEDTLYTVLHR [UNC13D_Y61_A59T_YF],1.5
10,HLEKKYVRRDS [CSF1R_Y708],0.997
11,ASENVYVNIAH [CTSC_Y150],2.05
12,KGEDFYCVTYH [FHL1_Y149_C153Y],1.22
13,EFLRNYFTDKA [DSG2_Y775],0.622
14,LRVKMYNFLRS [ADGRG7_Y760],2.58
15,PPQFSYGLQTQ [SRA1_Y35],0.308
16,YIGVTYKNKED [PDGFRA_Y993_E996K],0.747

# Molecular target: Fes (UniProt P07332)
# Experiment: as above
# Chain of Fes (P07332 whole entry, looked up): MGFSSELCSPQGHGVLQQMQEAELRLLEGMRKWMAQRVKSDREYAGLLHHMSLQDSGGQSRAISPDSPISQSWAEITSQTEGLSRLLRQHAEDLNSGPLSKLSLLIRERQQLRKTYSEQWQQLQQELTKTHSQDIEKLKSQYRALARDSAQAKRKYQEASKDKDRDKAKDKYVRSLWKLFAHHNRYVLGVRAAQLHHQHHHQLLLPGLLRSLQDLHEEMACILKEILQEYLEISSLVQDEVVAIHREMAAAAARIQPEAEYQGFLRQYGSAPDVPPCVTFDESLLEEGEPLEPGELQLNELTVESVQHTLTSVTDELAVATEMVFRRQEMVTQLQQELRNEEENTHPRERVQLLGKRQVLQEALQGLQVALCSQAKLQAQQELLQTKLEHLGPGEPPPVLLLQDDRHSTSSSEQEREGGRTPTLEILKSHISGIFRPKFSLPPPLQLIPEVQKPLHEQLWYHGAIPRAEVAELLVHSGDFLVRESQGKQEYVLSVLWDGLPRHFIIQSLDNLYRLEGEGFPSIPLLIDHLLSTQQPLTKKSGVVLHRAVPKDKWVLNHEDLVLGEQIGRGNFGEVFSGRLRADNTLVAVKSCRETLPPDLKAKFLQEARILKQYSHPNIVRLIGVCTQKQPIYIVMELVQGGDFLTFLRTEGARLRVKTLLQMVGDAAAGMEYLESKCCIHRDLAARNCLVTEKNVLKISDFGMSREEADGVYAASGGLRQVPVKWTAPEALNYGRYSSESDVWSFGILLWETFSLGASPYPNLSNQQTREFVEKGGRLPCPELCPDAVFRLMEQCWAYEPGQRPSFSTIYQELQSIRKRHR
row,Sequence,phosphorylation enrichment
1,WGLRSYFETSK [MAGED2_Y448_YF],1.08
2,FLAATYPTLGQ [NF1_Y2508_V2511L_YF],0.674
3,DLQDENDFKCK [STAT1_Y170_Y170N],1.86
4,PASLSYLSFEG [EXOSC3_Y143],0.954
5,KHASTYREAAT [DEAF1_Y483],0.518
6,GMKIVYVYVKK [DNAI2_Y5_E2K],1.12
7,QQLDEYQKLLD [LMNA_Y359_E361K],1.85
8,LLKAGYQGVLR [TTPA_Y100_H101Q],0.73
9,EIRTQYEAMAS [GFAP_Y242],0.778
10,PVQDAYQKVVA [HBB_Y131_A129D],0.453
11,DPYHVYIKNRV [KCNE3_Y95],1.02
12,GKVFIYHGSSL [ITGA7_Y458],1.3
13,TESALYGCTVV [KIAA1804_Y724_L729V],1.43
14,EFGEVYKGTLK [EPHA2_Y628_M631T],0.549
15,KWELRYMHSRV [ABCD1_Y281_G277W],1.31
16,TQTPPYVKKHP [LARP1B_Y457],0.624
17,SVESPYGSVTF [NDRG2_Y47_T45S],0.696

row,Sequence,phosphorylation enrichment
1,QRPFVYFFSFL [PTEN_Y176_R173P_YF],1.54
2,TVLEPYADPFF [ZC3H18_Y367_YF],0.879
3,SVVVRYEPPEV [TP53_Y220_P219R],0.902
4,GIVTGYLVLKE [DNMT3B_Y588_A585V],1.4
5,ADLTEYLSTHF [UQCRC1_Y219_YF],1.35
6,VPVPGYTKVPE [SPRR3_Y146_L149V],0.75
7,QMVGMYAFSFM [AVPR2_Y124_S126F_YF],1.65
8,ATHSGYRLNDF [CLDN14_Y233_YF],0.601
9,FEDTLYTVLHR [UNC13D_Y61_A59T_YF],1.38
10,HLEKKYVRRDS [CSF1R_Y708],4.2
11,ASENVYVNIAH [CTSC_Y150],0.827
12,KGEDFYCVTYH [FHL1_Y149_C153Y],1.5
13,EFLRNYFTDKA [DSG2_Y775],1.08
14,LRVKMYNFLRS [ADGRG7_Y760],3.22
15,PPQFSYGLQTQ [SRA1_Y35],0.604
16,YIGVTYKNKED [PDGFRA_Y993_E996K],1.07

# Molecular target: Jak2 (UniProt O60674)
# Experiment: as above
# Chain of Jak2 (O60674 whole entry, looked up): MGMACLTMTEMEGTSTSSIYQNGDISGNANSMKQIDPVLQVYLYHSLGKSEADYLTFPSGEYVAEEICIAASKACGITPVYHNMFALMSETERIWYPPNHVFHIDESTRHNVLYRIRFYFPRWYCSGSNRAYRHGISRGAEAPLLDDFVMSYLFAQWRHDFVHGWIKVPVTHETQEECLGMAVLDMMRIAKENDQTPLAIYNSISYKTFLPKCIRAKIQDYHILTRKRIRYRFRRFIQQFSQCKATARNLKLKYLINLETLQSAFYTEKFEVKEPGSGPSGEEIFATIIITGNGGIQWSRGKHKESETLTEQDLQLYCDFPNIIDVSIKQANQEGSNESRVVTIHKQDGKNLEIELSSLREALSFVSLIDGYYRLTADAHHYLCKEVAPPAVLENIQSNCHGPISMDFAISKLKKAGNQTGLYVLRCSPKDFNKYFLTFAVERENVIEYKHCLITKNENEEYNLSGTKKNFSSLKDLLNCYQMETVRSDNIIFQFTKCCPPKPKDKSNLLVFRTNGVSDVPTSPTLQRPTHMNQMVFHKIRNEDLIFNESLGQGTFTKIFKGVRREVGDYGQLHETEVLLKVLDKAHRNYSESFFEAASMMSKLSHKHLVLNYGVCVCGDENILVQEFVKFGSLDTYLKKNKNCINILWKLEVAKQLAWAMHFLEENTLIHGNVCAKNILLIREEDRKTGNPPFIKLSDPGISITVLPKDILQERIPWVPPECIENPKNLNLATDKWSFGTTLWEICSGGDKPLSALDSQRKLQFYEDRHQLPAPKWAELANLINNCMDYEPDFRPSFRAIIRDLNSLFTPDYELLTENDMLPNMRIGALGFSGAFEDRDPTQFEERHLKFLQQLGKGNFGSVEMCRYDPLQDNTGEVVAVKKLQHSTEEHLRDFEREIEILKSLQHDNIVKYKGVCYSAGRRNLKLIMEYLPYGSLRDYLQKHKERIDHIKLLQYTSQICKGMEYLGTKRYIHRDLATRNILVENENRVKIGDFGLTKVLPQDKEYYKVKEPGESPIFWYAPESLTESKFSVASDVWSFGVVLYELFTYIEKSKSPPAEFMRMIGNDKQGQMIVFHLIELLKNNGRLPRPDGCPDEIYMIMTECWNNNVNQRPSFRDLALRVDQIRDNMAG
row,Sequence,phosphorylation enrichment
1,WGLRSYFETSK [MAGED2_Y448_YF],1.04
2,FLAATYPTLGQ [NF1_Y2508_V2511L_YF],0.523
3,DLQDENDFKCK [STAT1_Y170_Y170N],1.55
4,PASLSYLSFEG [EXOSC3_Y143],1.18
5,KHASTYREAAT [DEAF1_Y483],0.356
6,GMKIVYVYVKK [DNAI2_Y5_E2K],0.899
7,QQLDEYQKLLD [LMNA_Y359_E361K],1.72
8,LLKAGYQGVLR [TTPA_Y100_H101Q],0.55
9,EIRTQYEAMAS [GFAP_Y242],0.682
10,PVQDAYQKVVA [HBB_Y131_A129D],0.425
11,DPYHVYIKNRV [KCNE3_Y95],0.872
12,GKVFIYHGSSL [ITGA7_Y458],1.02
13,TESALYGCTVV [KIAA1804_Y724_L729V],1.17
14,EFGEVYKGTLK [EPHA2_Y628_M631T],0.425
15,KWELRYMHSRV [ABCD1_Y281_G277W],1.07
16,TQTPPYVKKHP [LARP1B_Y457],0.593
17,SVESPYGSVTF [NDRG2_Y47_T45S],0.572

row,Sequence,phosphorylation enrichment
1,QRPFVYFFSFL [PTEN_Y176_R173P_YF],1.33
2,TVLEPYADPFF [ZC3H18_Y367_YF],0.906
3,SVVVRYEPPEV [TP53_Y220_P219R],0.705
4,GIVTGYLVLKE [DNMT3B_Y588_A585V],1.31
5,ADLTEYLSTHF [UQCRC1_Y219_YF],1.2
6,VPVPGYTKVPE [SPRR3_Y146_L149V],0.769
7,QMVGMYAFSFM [AVPR2_Y124_S126F_YF],1.15
8,ATHSGYRLNDF [CLDN14_Y233_YF],0.558
9,FEDTLYTVLHR [UNC13D_Y61_A59T_YF],1.56
10,HLEKKYVRRDS [CSF1R_Y708],6.5
11,ASENVYVNIAH [CTSC_Y150],0.986
12,KGEDFYCVTYH [FHL1_Y149_C153Y],1.25
13,EFLRNYFTDKA [DSG2_Y775],0.962
14,LRVKMYNFLRS [ADGRG7_Y760],1.47
15,PPQFSYGLQTQ [SRA1_Y35],0.433
16,YIGVTYKNKED [PDGFRA_Y993_E996K],0.809

# System: c-Src
# Experiment: as above
row,Sequence,phosphorylation enrichment
1,WGLRSYFETSK [MAGED2_Y448_YF],0.32
2,FLAATYPTLGQ [NF1_Y2508_V2511L_YF],0.404
3,DLQDENDFKCK [STAT1_Y170_Y170N],0.498
4,PASLSYLSFEG [EXOSC3_Y143],1.1
5,KHASTYREAAT [DEAF1_Y483],0.307
6,GMKIVYVYVKK [DNAI2_Y5_E2K],0.473
7,QQLDEYQKLLD [LMNA_Y359_E361K],0.642
8,LLKAGYQGVLR [TTPA_Y100_H101Q],0.311
9,EIRTQYEAMAS [GFAP_Y242],0.472
10,PVQDAYQKVVA [HBB_Y131_A129D],0.386
11,DPYHVYIKNRV [KCNE3_Y95],2.15
12,GKVFIYHGSSL [ITGA7_Y458],0.369
13,TESALYGCTVV [KIAA1804_Y724_L729V],4.43
14,EFGEVYKGTLK [EPHA2_Y628_M631T],0.376
15,KWELRYMHSRV [ABCD1_Y281_G277W],0.37
16,TQTPPYVKKHP [LARP1B_Y457],0.488
17,SVESPYGSVTF [NDRG2_Y47_T45S],5.95

row,Sequence,phosphorylation enrichment
1,QRPFVYFFSFL [PTEN_Y176_R173P_YF],0.748
2,TVLEPYADPFF [ZC3H18_Y367_YF],0.517
3,SVVVRYEPPEV [TP53_Y220_P219R],0.386
4,GIVTGYLVLKE [DNMT3B_Y588_A585V],0.448
5,ADLTEYLSTHF [UQCRC1_Y219_YF],0.561
6,VPVPGYTKVPE [SPRR3_Y146_L149V],0.398
7,QMVGMYAFSFM [AVPR2_Y124_S126F_YF],1.28
8,ATHSGYRLNDF [CLDN14_Y233_YF],0.453
9,FEDTLYTVLHR [UNC13D_Y61_A59T_YF],6.22
10,HLEKKYVRRDS [CSF1R_Y708],4.16
11,ASENVYVNIAH [CTSC_Y150],2.21
12,KGEDFYCVTYH [FHL1_Y149_C153Y],2.37
13,EFLRNYFTDKA [DSG2_Y775],0.528
14,LRVKMYNFLRS [ADGRG7_Y760],0.868
15,PPQFSYGLQTQ [SRA1_Y35],0.426
16,YIGVTYKNKED [PDGFRA_Y993_E996K],0.476
